Laboratory results reported in publication PMC7959301.

Target: SpyCatcher-fused ferritin protein (Streptococcus pyogenes | not stated)
Assay: SDS-PAGE of the covalent SpyTag/SpyCatcher adduct

6 × His-SpyTag-AE2F SOSIP.664
percent of input conjugated: 80 to 90%
